Four molecules from US20150266960A1 (University of Texas, published 2015) can be followed below.

B1: Wild type IgA Fc domain (other)
chain: VPCPVPSTPPTPSPSTPPTPSPSCCHPRLSLHRPALEDLLLGSEANLTCTLTGLRDASGVTFTWTPSSGKSAVQGPPERDLCGCYSVSSVLPGCAEPWNHGKTFTCTAAYPESKTPLTATLSKSGNTFRPEVHLLPPPSEELALNELVTLTCLARGFSPKDVLVRWLQGSQELPREKYLTWASRQEPSQGTTTFAVTSILRVAAEDWKKGDTFSCMVGHEALPLAFTQKTIDR
notes: Template for the alanine scan; also called wild-type glycosylated IgA; IgA CH2 CH3
B2: FcγRIIa-R131-GST (receptor, UniProt P12318 34-217, looked up)
chain: QAAAPPKAVLKLEPPWINVLQEDSVTLTCQGARSPESDSIQWFHNGNLIPTHTQPSYRFKANNNDSGEYTCQTGQTSLSDPVHLTVLSEWLVLQTPHLEFQEGETIMLRCHSWKDKPLVKVTFFQNGKSQKFSRLDPTFSIPQANHSHSGDYHCTGNIGYTLFSSKPVTITVQVPSMGSSSPMG
notes: R131 is an allele name counted on the mature protein; not shown: GST tag
B3: Mutant B (other)
Fc chain (hinge-CH2-CH3): DKTHTCPPCPAPELLGGPSVFLFPPKPKDTLMISRTPEVTCVVVDVSHEDPEVKFNWYVDGVEVHNAKTKPREEQYNSTYRVVSVLTVLHQDWLNGKEYKCKVSNKALPAPIEKTISKAKSGNTFRPEVHLLPPPSEELALNELVTLTCLARGFSPKDVLVRWLQGSQELPREKYLTWASRQEPSQGTTTFAVTSILRVAAEDWKKGDTFSCMVGHEALPLAFTQKTIDR
notes: Purified over Ni-NTA (His tag); also called Mutant B Fc domain; MutB

Assay [1] deals with T1, FcαRI-GST (UniProt P24071 22-227, limits assumed).
T1 construct: extracellular domain; Made in HEK293F cells from pMaz-IgH-FcαRI-GST (dimeric expression) and purified on glutathione Sepharose; also called soluble dimeric FcαRI-GST; CD89; not shown: GST tag
The assay can be described thus: SPR, antibody amine coupled, dimeric FcαRI-GST flowed, 2:1 bivalent analyte fit. On the technique in general: Surface plasmon resonance follows binding to a sensor surface in real time, without labels.

Assay [2] deals with T2, FcγRI-GST (UniProt P12314 16-292, limits assumed).
T2 construct: not shown: GST tag
The assay can be described thus: ELISA: Fc domain coated at 4 µg/mL, FcγRI-GST in 1:4 serial dilution, anti-GST HRP, A450. On the procedure: (§1) ELISA plates (Qiagen) were coated with 4 μg/mL of each of the mutant Fc domains in 1×PBS (pH 7.4) overnight at 4° C. The next day the plates were blocked for 2 hours at room temperature with 2% milk in 1×PBS containing 0.05% Tween (PBST) and washed three times in PBST at pH 7.4. To the first well, 66 μL of 20 μg/mL of either FcγRI-GST, FcγRI-GST, FcγRIIa-R131-GST, FcγRIIb-GST, or FcγRIIIa-F158-GST dissolved in PBS with 2% milk (PBSM) was added followed by 1:4 serial dilution. After 1 h of incubation at room temperature, the plates were washed and 50 μL PBSM was added containing 1:5000 goat anti-GST HRP (GE Healthcare) for 1 hour. To develop the plates, the wells were washed 3× with PBST, 50 μL TMB substrate was added per well (Thermo Scientific), 50 μL of 1 M H₂SO₄ was added to neutralize, and the absorbance at 450 nm was recorded.
(ELISA stands for enzyme-linked immunosorbent assay.)

The target in assay [3] is B1. Kind of assay: ELISA: Fc domain coated at 4 µg/mL, FcγRIIa-R131-GST in 1:4 serial dilution, anti-GST HRP, A450. On the procedure: as §1
Assay [4] deals with T1, FcαRI-GST. Kind of assay: ELISA: Fc domain coated at 4 µg/mL, FcαRI-GST in 1:4 serial dilution, anti-GST HRP, A450. Here is the method: as §1

T1 sequence (P24071 22-227 limits assumed): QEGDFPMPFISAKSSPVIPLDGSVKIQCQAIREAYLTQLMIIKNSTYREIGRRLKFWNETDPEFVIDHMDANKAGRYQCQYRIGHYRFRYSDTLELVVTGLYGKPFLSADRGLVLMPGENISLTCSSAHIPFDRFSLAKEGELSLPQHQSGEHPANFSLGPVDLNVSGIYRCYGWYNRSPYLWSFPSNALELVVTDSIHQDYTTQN
T2 sequence (P12314 16-292 limits assumed): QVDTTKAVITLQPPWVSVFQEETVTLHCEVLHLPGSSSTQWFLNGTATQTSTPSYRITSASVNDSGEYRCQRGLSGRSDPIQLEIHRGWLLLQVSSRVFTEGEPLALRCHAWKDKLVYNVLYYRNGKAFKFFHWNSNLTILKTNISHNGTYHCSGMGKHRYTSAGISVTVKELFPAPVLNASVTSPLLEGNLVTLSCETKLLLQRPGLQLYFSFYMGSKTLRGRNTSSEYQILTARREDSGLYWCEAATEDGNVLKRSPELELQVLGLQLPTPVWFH

In turn, trastuzumab IgA (antibody) returned a Kd in assay [1] of 500 nM. Regarding B1, the binding result in assay [2] is given as “no binding”. In the case of B2, in assay [3], the binding result is reported as “no binding”. As to B3, in assay [4], the binding result is recorded as “no binding”.
